Experiments:
[1] = molecular target: His-YFP-EB3 S162E and His-CFP-EB3 S162E, full-length phospho-mimetic mutant (human) (UniProt Q9UPY8); assay: FRET or BRET
[2] = molecular target: His-YFP-EB3 and His-CFP-EB3, full-length wild type (human) (UniProt Q9UPY8); assay: FRET or BRET

t1/2 of chain exchange [1] [min] | t1/2 of chain exchange [2] [min] | Substance
83.3 | 60.8 | His-YFP-EB3 S162E and His-CFP-EB3 S162E, full-length phospho-mimetic mutant (from UniProt Q9UPY8 1-281) (natural protein)
 | 160 | His-YFP-EB3 and His-CFP-EB3, full-length wild type (from UniProt Q9UPY8 1-281) (natural protein)

From paper PMC3627495
